The test concerns the target SARS-CoV-2 S-2P (engineered Spike ectodomain trimer with two stabilizing proline mutations) (SARS-CoV-2). Put plainly: […] (200 mM NaCl, 20 mM Tris-HCl pH 7.5), 4 °C; […].

Consider “SARS-CoV-2 S-2P (engineered Spike ectodomain trimer with two stabilizing proline mutations) (natural protein)”, for which the stoichiometry N is 3.

For orientation: stoichiometry N means the number of molecules, sites or subunits per partner or assembly.

For the origin of these results see PMC9907810.
